Blank lines part the entries; values can stand above or below the molecule they belong to. Non-standard residues stand in square brackets, D forms with d. No end group written: not given here. *: point of attachment. Desaminotyrosyl = O=C(CCc1ccc(O)cc1)*; NMeY = CN[C@@H](Cc1ccc(O)cc1)C(=O)O; Agmatine = N=C(N)NCCCCN*; Nle = CCCC[C@H](N)C(=O)O; Orn = NCCC[C@H](N)C(=O)O; Abu = CC[C@H](N)C(=O)O
Assays:
[1] = target: GHRH receptor of human pituitary membranes (human) (UniProt Q02643); experiment: competition vs 125I-[His1,Nle27]hGHRH(1-32)NH2, human pituitary membranes
[2] = target: T1, GHRH receptor of human pituitary membranes (human, UniProt Q02643); experiment: competition vs 125I-JV-1-42, human pituitary membranes
T1 sequence: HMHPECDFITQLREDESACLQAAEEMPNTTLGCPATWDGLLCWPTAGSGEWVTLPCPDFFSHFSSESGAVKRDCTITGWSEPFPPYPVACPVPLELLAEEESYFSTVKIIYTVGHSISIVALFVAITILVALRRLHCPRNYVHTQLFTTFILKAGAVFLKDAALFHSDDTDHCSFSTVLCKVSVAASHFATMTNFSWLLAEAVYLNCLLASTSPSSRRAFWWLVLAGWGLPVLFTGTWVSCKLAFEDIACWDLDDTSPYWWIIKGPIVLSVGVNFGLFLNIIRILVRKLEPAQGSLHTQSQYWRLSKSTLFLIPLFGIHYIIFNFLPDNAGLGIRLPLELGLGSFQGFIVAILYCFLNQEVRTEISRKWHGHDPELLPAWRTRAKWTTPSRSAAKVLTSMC
Method: The final binding affinities were expressed as IC₅₀ values and were calculated by using the LIGAND PC computerized curve-fitting program of Munson and Rodbard as modified by McPherson.

[3] = target: T1, GHRH receptor of human pituitary …; experiment: as above; remark: listed apart in the source
Excerpt: (§1) Normal human pituitaries were purchased from the National Hormone and Peptide Program (A.F. Parlow, Los Angeles, County Harbor-UCLA Medical Center, Torrance, Calif.).

[4] = target: T1, GHRH receptor of human pituitary …; experiment: competition vs 125I-[His1,Nle27]hGHRH(1-32)NH2, human pituitary membranes
Excerpt: as §1

[5] = target: T1, GHRH receptor of human pituitary …; experiment: as above; remark: listed apart in the source
Excerpt: Normal human pituitary was purchased from the National Hormone and Peptide Program (UCLA Medical Center, Torrance, Calif.).

[6] = target: T2, GHRH receptor of rat pituitary cells (rat, UniProt Q02644); experiment: cell-based or functional assay
T2 sequence: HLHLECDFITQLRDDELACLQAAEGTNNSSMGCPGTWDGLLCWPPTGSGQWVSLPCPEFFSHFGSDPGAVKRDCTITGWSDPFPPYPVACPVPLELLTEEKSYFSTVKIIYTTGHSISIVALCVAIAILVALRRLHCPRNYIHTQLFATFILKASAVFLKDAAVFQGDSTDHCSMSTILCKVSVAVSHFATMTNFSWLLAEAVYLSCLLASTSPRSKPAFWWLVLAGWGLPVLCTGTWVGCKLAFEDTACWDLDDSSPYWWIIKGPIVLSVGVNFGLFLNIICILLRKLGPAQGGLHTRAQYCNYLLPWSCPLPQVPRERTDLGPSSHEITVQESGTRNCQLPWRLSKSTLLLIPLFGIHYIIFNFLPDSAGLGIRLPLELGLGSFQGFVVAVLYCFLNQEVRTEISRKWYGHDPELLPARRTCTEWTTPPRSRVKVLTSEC

[7] = target: T1, GHRH receptor of human pituitary …; experiment: competition vs 125I-[His1,Nle27]hGHRH(1-32)NH2, human pituitary membranes; remark: listed apart in the source

Molecule: JI-34 (peptide)
relative affinity (binding potency) vs GHRH (vs GHRH(1-29)=1) [1]: 4.32

B1: JI-38 [Dat^1, Gln^8, Orn^12,21, Abu^15, Nle^27, Asp^28, Agm^29]hGHRH(1-29)NH2 (peptide)
peptide: [Desaminotyrosyl]ADAIFTQSYR[Orn]VL[Abu]QLSAR[Orn]LLQDI[Nle]D[Agmatine]
SMILES: CCCC[C@H](NC(=O)[C@@H](NC(=O)[C@H](CC(=O)O)NC(=O)[C@H](CCC(N)=O)NC(=O)[C@H](CC(C)C)NC(=O)[C@H](CC(C)C)NC(=O)[C@H](CCCN)NC(=O)[C@H](CCCNC(=N)N)NC(=O)[C@H](C)NC(=O)[C@H](CO)NC(=O)[C@H](CC(C)C)NC(=O)[C@H](CCC(N)=O)NC(=O)[C@H](CC)NC(=O)[C@H](CC(C)C)NC(=O)[C@@H](NC(=O)[C@H](CCCN)NC(=O)[C@H](CCCNC(=N)N)NC(=O)[C@H](Cc1ccc(O)cc1)NC(=O)[C@H](CO)NC(=O)[C@H](CCC(N)=O)NC(=O)[C@@H](NC(=O)[C@H](Cc1ccccc1)NC(=O)[C@@H](NC(=O)[C@H](C)NC(=O)[C@H](CC(=O)O)NC(=O)[C@H](C)NC(=O)CCc1ccc(O)cc1)[C@@H](C)CC)[C@@H](C)O)C(C)C)[C@@H](C)CC)C(=O)N[C@@H](CC(=O)O)C(=O)NCCCCNC(=N)N
IC50 [2]: 1.71 nM
relative affinity (binding potency) vs GHRH [2]: 2.4 vs GHRH(1-29)=1
relative affinity (binding potency) vs JI-38 [2]: 1 vs JI-38=1
IC50 [3]: 4.35 nM
relative affinity (binding potency) vs JI-38 [3]: 1 vs JI-38=1
IC50 [4]: 1.95 nM
relative affinity (binding potency) vs GHRH [4]: 3.03 vs GHRH(1-29)=1
relative affinity (binding potency) vs JI-38 [4]: 1 vs JI-38=1
IC50 [5]: 2.74 nM
relative affinity (binding potency) compared to JI-38 [5]: 1 vs JI-38=1
relative affinity (binding potency) compared to hGHRH(1-29) [5]: 2.79 vs hGHRH(1-29)NH2=1

More lines, now with the values ahead:

relative affinity (binding potency) vs GHRH (vs GHRH(1-29)=1) [1]: 3.25
Molecule: JI-36 (peptide)

GH-releasing potency in vitro relative to JI-38, superfused rat pituitary cells [6]: ~3 fold vs JI-38
IC50 [2]: 0.01 nM
relative affinity (binding potency) vs GHRH [2]: 406 vs GHRH(1-29)=1
relative affinity (binding potency) vs JI-38 [2]: 171 vs JI-38=1
IC50 [3]: 0.27 nM
relative affinity (binding potency) vs JI-38 [3]: 16.1 vs JI-38=1
fold increase in GHRH receptor binding affinity vs JI-38 [7]: 2.7 fold vs JI-38
relative affinity (binding potency) compared to JI-38 [5]: 2.69 vs JI-38=1
relative affinity (binding potency) compared to hGHRH(1-29) [5]: 7.5 vs hGHRH(1-29)NH2=1
Molecule: [NMeY]ADAIFTQSYR[Orn]VL[Abu]QLSAR[Orn]LLQDI[Nle]D[Agmatine] [P-20356 [N-Me-Tyr^1, Gln^8, Orn^12, Abu^15, Orn^21, Nle^27, Asp^28, Agm^29]hGHRH(1-29)NH2]

IC50 [3]: 0.16 nM
relative affinity (binding potency) vs JI-38 [3]: 27.2 vs JI-38=1
fold enhancement of receptor binding affinity vs JI-38 [7]: ~3.7 fold vs JI-38
IC50 [5]: 0.74 nM
relative affinity (binding potency) compared to JI-38 [5]: 3.69 vs JI-38=1
relative affinity (binding potency) compared to hGHRH(1-29) [5]: 10.3 vs hGHRH(1-29)NH2=1
Molecule: [NMeY][dA]DAIFTQSYR[Orn]VL[Abu]QLSAR[Orn]LLQDI[Nle]DR-NHMe [P-27403 [N-Me-Tyr^1, D-Ala^2, Gln^8, Orn^12, Abu^15, Orn^21, Nle^27, Asp^28]hGHRH(1-29)NH-CH3]
